Test results as given in article PMC3428313.

Assays:
[1] = tested on: C/EBPbeta isoform LAP, P17676-2; experiment: competition EMSA; conditions: 20 mM HEPES pH 8.0, 1 mM MgCl2, 60 mM KCl, 0.1 mM EDTA, 15% glycerol, 1 ug poly dI-dC, 8 ug nuclear extract; 30 min room temperature then 15 min 4 C; gel at …
[2] = tested on: C/EBPbeta isoform LIP (Flag-LIP), P17676-3; experiment: competition EMSA; conditions: 20 mM HEPES pH 8.0, 1 mM MgCl2, 60 mM KCl, 0.1 mM EDTA, 15% glycerol, 1 ug poly dI-dC, 8 ug nuclear extract; 30 min room temperature then 15 min 4 C; gel at …
C/EBPbeta isoform LIP (Flag-LIP), P17676-3, sequence (P17676 199-345): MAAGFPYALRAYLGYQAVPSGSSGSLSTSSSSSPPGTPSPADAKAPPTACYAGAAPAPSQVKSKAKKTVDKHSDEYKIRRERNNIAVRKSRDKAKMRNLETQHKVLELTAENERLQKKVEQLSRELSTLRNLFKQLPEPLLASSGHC

C/EBPbeta isoform LAP, P17676-2, sequence (P17676 24-345): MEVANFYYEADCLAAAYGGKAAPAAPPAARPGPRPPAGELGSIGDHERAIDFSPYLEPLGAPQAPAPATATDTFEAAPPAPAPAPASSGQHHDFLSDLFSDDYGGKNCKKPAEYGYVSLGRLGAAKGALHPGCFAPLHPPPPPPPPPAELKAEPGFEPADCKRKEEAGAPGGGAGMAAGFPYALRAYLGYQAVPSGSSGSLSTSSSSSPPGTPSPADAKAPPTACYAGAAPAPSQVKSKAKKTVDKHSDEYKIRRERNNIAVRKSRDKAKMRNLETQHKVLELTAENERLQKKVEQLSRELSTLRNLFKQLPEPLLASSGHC

For “GCTTGCTTGCTTAAAGACCT (double strand) [DS1C/A C/EBP site]”, the Kd [1] was 24.8 10^-7 M and the Kd [2] was 5.1 10^-7 M.
“GCTTGCTTGCTTAAAGCCCT (double strand) [DS1 wild-type C/EBP site]” was tested, and the Kd [1] was 50 10^-7 M and the Kd [2] was 17.5 10^-7 M.
